Results taken from patent US20220324970A1 (Janssen / Centocor, published 2022).

T1: mouse pIgR extracellular domain (ECD) (mouse, UniProt O70570 19-645)
T1 construct: The entry ends with a HHHHHH tag; also called mpIgR; mpIgR ectodomain
T1 sequence: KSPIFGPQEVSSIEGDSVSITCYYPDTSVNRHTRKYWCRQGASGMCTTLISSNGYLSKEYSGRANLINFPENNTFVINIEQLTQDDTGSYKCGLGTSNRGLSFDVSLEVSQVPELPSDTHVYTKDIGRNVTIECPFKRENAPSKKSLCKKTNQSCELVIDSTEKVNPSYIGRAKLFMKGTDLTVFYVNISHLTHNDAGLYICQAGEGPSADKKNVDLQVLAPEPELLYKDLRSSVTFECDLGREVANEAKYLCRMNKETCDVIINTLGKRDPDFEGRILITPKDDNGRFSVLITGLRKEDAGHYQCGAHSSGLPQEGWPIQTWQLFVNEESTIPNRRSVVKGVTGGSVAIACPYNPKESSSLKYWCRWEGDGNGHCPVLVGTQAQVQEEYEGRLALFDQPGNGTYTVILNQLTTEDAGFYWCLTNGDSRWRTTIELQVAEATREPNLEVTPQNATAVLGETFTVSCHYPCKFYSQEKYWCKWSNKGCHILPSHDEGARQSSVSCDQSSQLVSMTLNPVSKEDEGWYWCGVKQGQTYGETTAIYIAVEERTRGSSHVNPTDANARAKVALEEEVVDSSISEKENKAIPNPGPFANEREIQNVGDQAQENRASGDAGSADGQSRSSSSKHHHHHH

T2: human pIgR extracellular domain 4-domain 5 (D4-D5) (human, UniProt P01833 350-565)
T2 construct: HIS-tagged construct made in HEK293 cells; also called hpIgR domains 4-5
T2 chain: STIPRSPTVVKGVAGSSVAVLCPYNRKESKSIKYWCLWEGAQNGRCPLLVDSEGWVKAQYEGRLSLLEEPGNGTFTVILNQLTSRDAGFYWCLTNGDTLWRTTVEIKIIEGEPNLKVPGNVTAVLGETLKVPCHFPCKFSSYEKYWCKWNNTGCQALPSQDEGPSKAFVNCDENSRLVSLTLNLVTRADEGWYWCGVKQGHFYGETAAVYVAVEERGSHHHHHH

B1: VHH3-linker-mono-Fc protein (Fc fusion)
chain: QLQLVESGGGLVQPGGSLRLSCAASGSIFSINVMGWYRQAPGKQRELVARINGGGITHYAESVKGRFTISRDNAKNTVYLQMNSLKPEDTAAYYCKADVFGSSGYVETYWGQGTQVTVSSEPKTPKPQPQPQLQPQPNPTTESKSPKSPAPELLGGPSVFLFPPKPKDTLMISRTPEVTCVVVDVSHEDPEVKFNWYVDGVEVHNAKTKPREEQYNSTYRVVSVLTVLHQDWLNGKEYKCKVSNKALPAPIEKTISKAKGQPREPQVYTKPPSREEMTKNQVSLSCLVKGFYPSDIAVEWESNGQPENNYKTTVPVLDSDGSFRLASYLTVDKSRWQQGNVFSCSVMHEALHNHYTQKSLSLSPGK
notes: made in CHO cells; also called VHH3-mono-Fc; hpIgR_021
B2: VHH2-linker-mono-Fc protein (Fc fusion)
chain: EVQVVESGGGLVQAGGSLKLACAAPGLTFSSYRMGWFRQAPGQEREFVAAIDWNGRGTYYRYYADSVKGRSTISRDNAKNTVYLQMNSLKPEDTAVYYCAATTVLTDPRVLNEYATWGQGTQVTVSSEPKTPKPQPQPQLQPQPNPTTESKSPKSPAPELLGGPSVFLFPPKPKDTLMISRTPEVTCVVVDVSHEDPEVKFNWYVDGVEVHNAKTKPREEQYNSTYRVVSVLTVLHQDWLNGKEYKCKVSNKALPAPIEKTISKAKGQPREPQVYTKPPSREEMTKNQVSLSCLVKGFYPSDIAVEWESNGQPENNYKTTVPVLDSDGSFRLASYLTVDKSRWQQGNVFSCSVMHEALHNHYTQKSLSLSPGK
notes: also called VHH2-mono-Fc; mpIgR_338

What was measured:
[1] = biological target: T3, human pIgR, full-length, on cells (human, UniProt P01833 19-764); assay: flow cytometry on MDCK-hpIgR cells; summary table, repeats Table 1
T3 construct: whole, on cells; Used for the flow cytometry EC50 values (MDCK-hpIgR) and for the transcytosis read-outs; also called hpIgR; cell-surface hpIgR
T3 sequence (P01833 19-764): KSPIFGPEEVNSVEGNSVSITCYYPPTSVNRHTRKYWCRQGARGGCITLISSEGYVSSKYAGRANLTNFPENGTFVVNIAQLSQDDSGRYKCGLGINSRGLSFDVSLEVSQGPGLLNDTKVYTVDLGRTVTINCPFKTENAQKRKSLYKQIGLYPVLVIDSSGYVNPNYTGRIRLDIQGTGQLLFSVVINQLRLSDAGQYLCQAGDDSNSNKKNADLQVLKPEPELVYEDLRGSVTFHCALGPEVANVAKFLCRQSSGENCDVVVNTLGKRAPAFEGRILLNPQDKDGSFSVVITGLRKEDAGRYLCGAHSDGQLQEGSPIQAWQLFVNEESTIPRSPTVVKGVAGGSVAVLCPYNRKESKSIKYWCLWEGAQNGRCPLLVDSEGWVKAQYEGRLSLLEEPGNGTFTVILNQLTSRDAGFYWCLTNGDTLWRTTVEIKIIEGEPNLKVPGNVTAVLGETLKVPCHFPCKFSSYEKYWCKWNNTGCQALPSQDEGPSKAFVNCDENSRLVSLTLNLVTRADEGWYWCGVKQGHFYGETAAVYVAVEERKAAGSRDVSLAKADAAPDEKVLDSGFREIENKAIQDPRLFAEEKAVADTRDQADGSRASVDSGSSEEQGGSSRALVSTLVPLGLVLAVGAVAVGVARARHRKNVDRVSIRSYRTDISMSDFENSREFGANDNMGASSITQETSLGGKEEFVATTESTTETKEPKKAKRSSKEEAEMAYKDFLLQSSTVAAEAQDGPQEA
Procedure: Flow Cytometry was performed as follows. To test whether VHH-mono-Fc molecules recognize cell-surface hpIgR, Madin-Darby canine kidney (MDCK) cells engineered to express full-length hpIgR were used. Cells were cultured in Dulbecco's modified Eagle's medium containing 10% fetal calf serum at 37° C. with 5% CO₂. Cells were split into equal fractions (≈70,000 cells) and incubated with increasing concentrations of VHH-mono-Fc molecules for 30 min at 4 C. […] Cells were washed twice with cold staining buffer, resuspended in running buffer and analyzed with an iQue Screener (IntelliCyt Corporation). Binding was assessed by RL1 (A647) Geomeans from the live cell population and EC50 was calculated by fitting log VHH concentration versus MFI in Prism (Graphpad).

[2] = biological target: T4, human pIgR extracellular domain (ECD) (human, UniProt P01833 19-638); assay: ECL (MSD), hpIgR-ECD coated, anti-Fc detection
T4 construct: also called hpIgR ECD
Procedure: (§1) To check whether VHH recognizes a buried epitope on pIgR, EC₅₀ values were measured for VHH-mono-Fc molecules binding to hpIgR-ECD protein by electrochemiluminescence using two different detection antibodies, an anti-Fc antibody and an anti-VHH antibody. pIgR ECD (10 μg/ml in PBS) was coated on high-bind MSD plates for 2 hours at RT with 1000 rpm, incubated with blocking buffer for 1 hour at RT, incubated with VHH-mono-Fc molecules (increasing concentrations in PBS) for 2 hours at RT with 1000 rpm, washed 3× with PBT, incubated with ruthenylated secondary antibody (2 μg/ml in PBS) for 1 hour at RT with 1000 rpm, washed 3× with PBT and read plates in 40 ul reading buffer using the MSD imager. EC50 was calculated by fitting log VHH concentration versus log ECLU in Prism (Graphpad). The increase in EC₅₀ (>50-fold) due to anti-VHH detection was used as a measure to determine whether VHH recognized buried epitope on pIgR.

[3] = biological target: T4, human pIgR extracellular domain (ECD); assay: BLI; summary table, repeats Table 1
Target sequence in this assay (P01833 other isoform, or with tags, fused parts or gaps): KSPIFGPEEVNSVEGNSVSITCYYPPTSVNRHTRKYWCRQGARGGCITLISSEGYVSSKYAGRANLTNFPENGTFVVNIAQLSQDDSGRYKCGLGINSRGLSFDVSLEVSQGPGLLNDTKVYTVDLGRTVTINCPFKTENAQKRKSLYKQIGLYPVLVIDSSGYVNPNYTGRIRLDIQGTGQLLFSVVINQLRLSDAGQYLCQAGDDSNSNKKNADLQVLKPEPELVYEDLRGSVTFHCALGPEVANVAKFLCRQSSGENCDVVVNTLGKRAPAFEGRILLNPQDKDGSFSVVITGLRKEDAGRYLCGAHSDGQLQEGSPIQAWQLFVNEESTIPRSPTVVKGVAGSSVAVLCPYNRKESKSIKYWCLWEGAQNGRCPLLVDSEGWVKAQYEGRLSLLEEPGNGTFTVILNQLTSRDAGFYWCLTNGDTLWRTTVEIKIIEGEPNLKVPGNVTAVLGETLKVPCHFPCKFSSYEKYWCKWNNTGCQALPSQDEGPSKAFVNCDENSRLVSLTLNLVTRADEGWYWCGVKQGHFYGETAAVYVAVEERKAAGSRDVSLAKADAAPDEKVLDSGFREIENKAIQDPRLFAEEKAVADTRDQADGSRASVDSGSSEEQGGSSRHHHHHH

[4] = biological target: T4, human pIgR extracellular domain (ECD); assay: BLI; summary table, repeats Table 1; remark: listed apart in the source
Target sequence in this assay (P01833 other isoform, or with tags, fused parts or gaps): as above

[5] = biological target: T4, human pIgR extracellular domain (ECD); assay: BLI, HIS-tagged pIgR construct on anti-HIS biosensors; HIS-tagged hpIgR_ECD on anti-HIS biosensors, Table 3
Target sequence in this assay (P01833 other isoform, or with tags, fused parts or gaps): as above
Procedure: (§2) Bio-layer Interferometry was performed as follows. […] Data were collected with Octet Data Acquisition version 7.1.0.87 (ForteBio) and analyzed using Octet Data Analysis version 7.1 (ForteBio). To measure binding kinetics between VHH-mono-Fc molecules and HIS-tagged pIgR proteins, VHH-mono-Fc was immobilized on amine-reactive generation-2 (ARG2) biosensors according to manufacturer's instructions and increasing concentrations of pIgR proteins were exposed to sensor-immobilized VHH. In some cases, HIS-tagged pIgR proteins were immobilized on anti-HIS biosensors and exposed to increasing concentrations of VHH-mono-Fc molecules. Association and dissociation rates were measured by the shift in wavelength (nm). […] All reactions were performed at 25° C. in PBS.
(§3) (Full-length hpIgR ECD was purchased from R&D Systems.) The five constructs (D1-D2, D1, D1_tCDR1, D1_tCDR2, D1_tCDR3) were expressed and purified from HEK293 cells using immobilized metal ion affinity chromatography. Three hpIgR domain-1 CDR mutants (D1_tCDR1, D1_tCDR2, D1_tCDR3) contain respective teleost fish CDR on a hpIgR domain-1 framework. His-tagged pIgR constructs were immobilized on anti-HIS biosensors and binding of VHH-mono-Fc molecules to pIgR constructs were measured by bio-layer interferometry.

[6] = biological target: T5, human pIgR extracellular domain 1 (D1) (human, UniProt P01833 19-127); assay: ECL (MSD); headed 'Anti-Fc' on the sheet, but its ECD values are the anti-VHH values of Table 2, so anti-VHH detection
T5 construct: HIS-tagged construct made in HEK293 cells; also called hpIgR domain-1
T5 sequence (P01833 other isoform, or with tags, fused parts or gaps limits assumed): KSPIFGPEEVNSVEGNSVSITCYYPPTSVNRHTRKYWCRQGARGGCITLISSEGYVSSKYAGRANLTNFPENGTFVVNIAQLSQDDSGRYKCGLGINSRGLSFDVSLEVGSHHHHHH

[7] = biological target: T6, human pIgR extracellular domain 1-domain 2 (D1-D2) (human, UniProt P01833 19-240); assay: as above
T6 construct: HIS-tagged construct made in HEK293 cells

[8] = biological target: T3, human pIgR, full-length, on cells; assay: cell-based or functional assay
[9] = biological target: T1, mouse pIgR extracellular domain (ECD); assay: BLI, screen of the VHH clones generated from hpIgR antigen
[10] = biological target: T3, human pIgR, full-length, on cells; assay: flow cytometry on MDCK-hpIgR cells
[11] = biological target: T4, human pIgR extracellular domain (ECD); assay: ECL (MSD), hpIgR-ECD coated, anti-VHH detection
Target sequence in this assay (P01833 other isoform, or with tags, fused parts or gaps): as the sequence (P01833 other isoform, or with tags, fused parts or gaps) above
Procedure: as §1

[12] = biological target: T3, human pIgR, full-length, on cells; assay: cell-based or functional assay; remark: listed apart in the source
[13] = biological target: T2, human pIgR extracellular domain …; assay: ECL (MSD) heat map, HIS-tagged construct captured via anti-HIS, anti-human-Fc detection
Procedure: The Electrochemiluminescence assay was performed as follows. A meso-scale discovery (MSD) platform was used for conducting epitope mapping and epitope burial studies. To test the binding of VHH-mono-Fc molecules to purified pIgR protein constructs, Streptavidin MSD plates were coated with a biotinylated anti-HIS antibody (2 μg/ml in PBS) for 1 hour at RT with 1000 rpm, washed 3× with PBT (PBS+0.1% Tween-20), incubated with blocking buffer for 1 hour at RT, incubated with His-tagged pIgR proteins (10 μg/ml in PBS) for 2 hours at RT with 1000 rpm, washed 3× with PBT, incubated with VHH-mono-Fc molecules (100 μg/ml in PBS) for 2 hours at RT with 1000 rpm, washed 3× with PBT, incubated with ruthenylated-anti-human-Fc antibody (2 μg/ml in PBS) for 1 hour at RT with 1000 rpm, washed 3× with PBT and read plates in 40 ul reading buffer using the MSD imager. ECLU values were plotted as a heatmap.

[14] = biological target: T4, human pIgR extracellular domain (ECD); assay: BLI, HIS-tagged pIgR construct on anti-HIS biosensors
Target sequence in this assay (P01833 other isoform, or with tags, fused parts or gaps): as above
Procedure: as §2, §3

[15] = biological target: T1, mouse pIgR extracellular domain (ECD); assay: BLI, screen of the VHH clones generated from mpIgR antigen
[16] = biological target: T4, human pIgR extracellular domain (ECD); assay: as above
Target sequence in this assay (P01833 other isoform, or with tags, fused parts or gaps): as above

[17] = biological target: T4, human pIgR extracellular domain (ECD); assay: BLI; summary table, repeats Table 1; summary Table 4

Binder | EC50 [1] [nM] | EC50 [2] [nM] | Kd [3] [nM] | Kd [4] [nM] | Kd [5] [nM] | EC50 [6] [nM] | EC50 [7] [nM] | For. Trans. (Fold Incr.) [8] [fold] | Rev. Trans (Fold Incr.) [8] [fold] | Kd [9] [nM] | EC50 [10] [nM] | EC50 [11] [nM] | increase in their apical concentration relative to control VHH (MDCK-hpIgR monolayers) [12] [fold] | binding result [13] | Kd [14] [nM] | Kd [15] [nM] | Kd [16] [nM] | Kd [17] [nM]
B1 | 6.4 | 0.5 | 5 | 5 | 10 | 17.6 | 13.7 | 1 | 1 | 40 | 6.4 | 28.6 |  |  |  |  |  | 
B2 | 6.3 | 4.2 | 21 |  |  | 8.1 | 1.8 | 21 | 5.7 |  | 6.3 | 4 | > 10 | no binding (tested: 100 ug/ml (single concentration)) | 22 | 1 | 22 | 21
